The values that follow come from patent US20080286815A1, “SPECTROPHOTOMETRIC ASSAY FOR HUMAN HISTONE DEACETYLASE 8” (THE UNIVERSITY OF AKRON, priority 2007, published 2008).

Substrate in the data set: CSCC[C@H](NC(=O)[C@H](CC(C)C)NC(=O)[C@H](CCCC/N=C(/C)S)NC(=O)[C@H](CCCCN)NC(=O)[C@H](Cc1c[nH]cn1)NC(=O)[C@H](CCCN=C(N)N)NC(=O)[C@H](CO)NC(=O)[C@@H](NC(=O)[C@H](CO)NC(=O)[C@H](CCC(N)=O)NC(=O)CNC(=O)[C@H](CCCCN)NC(=O)[C@@H](N)CCCCN)[C@@H](C)O)C(=O)N[C@@H](Cc1ccccc1)C(=O)N[C@@H](CCCCN)C(=O)N[C@H](C(=O)N[C@@H](CCC(=O)O)C(=O)NCC(=O)O)[C@@H](C)O
The data set can be described thus: DTNB-based enzymatic assay with purified HDAC8. The class given is biochemical, human. The settings on record: other: peptide as in vitro HDAC8 substrate, 375 nM HDAC8, room temperature, 1 hour, pH 6.8. Here is the method: DTNB-based enzymatic assay. The DTNB data shown in FIG. 4 was generated using the following procedure. A second portion (300 µL) of the above HDAC8 assay mixture was quenched with 600 µL of the stop solution: 3.2 M guanidinium chloride in 100 mM of sodium phosphate (pH 6.8), and was analyzed by the DTNB-based assay procedure according to the invention, i.e. 60 min after the quench and DTNB (100 µL) addition, A412 was recorded for each sample derived at different time points of the same assay reaction. Again, the same assay protocol was used when the HeLa nuclear extracts were used instead of human HDAC8. To measure the kinetic parameters for the thioacetyl-lysine p53 peptide as an in vitro HDAC8 substrate, all the assay reactions contained 375 nM of HDAC8, a range of substrate concentrations varied around the Km value, and were allowed to proceed at room temperature for 1 hour before quenching. Reaction velocities were determined under initial condition (substrate turnover <10%). This experiment was performed twice, and each duplicate measurement agreed within 20%. By using a non-linear least squares approach with the computer program Kaleidagraph (Reading, Pa., USA), kinetic parameters (kcat and Km) were derived from the Michaelis-Menten plot based on the experimental data.
Assay with purified HDAC8. […]

B1: human HDAC8 (Homo sapiens) (protein)
chain: MEEPEEPADSGQSLVPVYIYSPEYVSMCDSLAKIPKRASMVHSLIEAYALHKQMRIVKPKVASMEEMATFHTDAYLQHLQKVSQEGDDDHPDSIEYGLGYDCPATEGIFDYAAAIGGATITAAQCLIDGMCKVAINWSGGWHHAKKDEASGFCYLNDAVLGILRLRRKFERILYVDLDLHHGDGVEDAFSFTSKVMTVSLHKFSPGFFPGTGDVSDVGLGKGRYYSVNVPIQDGIQDEKYYQICESVLKEVYQAFNPKAVVLQLGADTIAGDPMCSFNMTPVGIGKCLKYILQWQLATLILGGGGYNLANTARCWTYLTGVILGKTLSSEIPDHEFFTAYGPDYVLEITPSCRPDRNEPHRIQQILNYIKGNLKHVV
In the case of B1, the Km came out at 33.7 ± 7.2 µM and the catalytic constant (kcat) turned out to be 0.26 ± 0.02 min⁻¹.

Usually Km stands for the concentration of substrate that gives half-maximal velocity. The term kcat denotes the maximal rate divided by the concentration of active sites.
